Tests used:
Aβ(1-42) fibrils (human) [1] = target: Aβ(1-42) fibrils (human) (UniProt P05067); experiment: dot blot densitometry, antibody 0.2 µg/ml; column Aβ(1-42) fibril
Aβ(1-42) fibrils (human) [2] = target: Aβ(1-42) fibrils (human) (UniProt P05067); experiment: co-pelleting with Aβ(1-42) fibrils, SDS-PAGE, optical density of the heavy chain in pellet / (pellet + supernatant)
Aβ(1-40) monomer (human) = experiment: dot blot densitometry, antibody 0.2 µg/ml; column Aβ(1-40) monomer, 0.1% NaOH
Chain of Aβ(1-40) monomer (human) (peptide, as listed by the source): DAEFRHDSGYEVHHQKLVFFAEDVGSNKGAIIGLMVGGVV

Chain of Aβ(1-42) fibrils (human) (P05067 672-713): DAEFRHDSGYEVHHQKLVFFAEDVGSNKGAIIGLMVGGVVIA

B1: monoclonal antibody 3B10 (antibody, part only; not given: light chain, V domains shown, part only)
VH: QVQLQQSGPELVKPGASVKMSCKASGYTFTDYVIHWVKQKPGQGLEWIGYINPYNDGTQYNEKFKGKATLTSDKSSSTVYMELSSLTSEDSTVYYCTVEGGTWDGYFDVWGTGTTVTVSS
Aβ(1-42) fibrils (human) [1]
  relation between recognition of Aβ(20-42) globulomer and the respective Aβ form: > 10000
Aβ(1-42) fibrils (human) [2]
  antibody bound to fibrils [%]: 5%
Aβ(1-40) monomer (human)
  relation between recognition of Aβ(20-42) globulomer and the respective Aβ form: > 10000
